Laboratory results from publication PMC6478338, “Peptide barcoding for establishment of new types of genotype–phenotype linkages” (PLoS ONE, 2019).

Biological target: T1, Recombinant human sCD4 CF (Homo sapiens, UniProt P01730)
T1 construct: CD4, human, soluble recombinant form (sCD4, carrier-free); it is probably the extracellular domain of CD4 (surmised); also called recombinant CD4; source: bought: R&D Systems
Test: SPR; Biacore T-200; sCD4 (2486.9 RU) or GFP (1189.8 RU) immobilised on CM5 chip; nanobodies flowed in HBS-EP (0.01 M HEPES pH 7.4, 0.15 M NaCl, 3 mM EDTA, 0.005% P20): anti-CD4 0.2-1.0 uM, anti-GFP 0.5-50 nM; 30 uL/min, contact 120 s, dissociation 120 s
Conditions: both partners purified

Kd [nM]	koff [s⁻¹]	kon [M⁻¹ s⁻¹]	Binder
42	0.0054	68000	Anti-CD4-FLAG nanobody (VHH, also called anti-CD4 nanobody; source: Pichia pastoris GS115, secreted; culture supernatant filtered, concentrated and buffer-replaced with PBS) VHH: EVQLVESGGGSVQPGGSLTLSCGTSGRTFNVMGWFRQAPGKEREFVAAVRWSSTGIYYTQYADSVKSRFTISRDNAKNTVYLEMNSLKPEDTAVYYCAADTYNSNPARWDGYDFRGQGTQVTVSS
52	0.004	77000	Anti-CD4-FLAG-Barcode 1 nanobody (VHH, also called peptide-barcoded anti-CD4 nanobody; source: Pichia pastoris GS115, secreted; culture supernatant filtered, concentrated and buffer-replaced with PBS; purified with anti-FLAG gels (immunostaining)) VHH: EVQLVESGGGSVQPGGSLTLSCGTSGRTFNVMGWFRQAPGKEREFVAAVRWSSTGIYYTQYADSVKSRFTISRDNAKNTVYLEMNSLKPEDTAVYYCAADTYNSNPARWDGYDFRGQGTQVTVSS
